The chains are these.
T1: human IL-36R (IL1RL2) on primary human cells (human) (UniProt Q9HB29)
T1 sequence (looked up): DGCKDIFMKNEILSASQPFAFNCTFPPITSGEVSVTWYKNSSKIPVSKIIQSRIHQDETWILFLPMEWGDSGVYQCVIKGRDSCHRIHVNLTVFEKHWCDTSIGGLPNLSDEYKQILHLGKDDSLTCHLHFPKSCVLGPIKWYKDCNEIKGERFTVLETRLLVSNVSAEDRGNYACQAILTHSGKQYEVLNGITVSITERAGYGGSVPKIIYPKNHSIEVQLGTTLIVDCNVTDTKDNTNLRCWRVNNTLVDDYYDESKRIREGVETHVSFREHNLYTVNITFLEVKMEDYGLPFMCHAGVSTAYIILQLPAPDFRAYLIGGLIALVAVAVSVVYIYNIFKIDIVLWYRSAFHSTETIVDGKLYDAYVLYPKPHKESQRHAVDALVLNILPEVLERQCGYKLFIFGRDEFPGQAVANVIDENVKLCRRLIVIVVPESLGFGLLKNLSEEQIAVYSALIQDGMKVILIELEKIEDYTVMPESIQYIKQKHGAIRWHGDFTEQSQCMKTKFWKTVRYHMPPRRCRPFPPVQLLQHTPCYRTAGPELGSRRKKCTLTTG

B1: H4H14700P2 (antibody, human IgG4 S228P, kappa, V domains shown)
VH: EVQLVESGGGLVQPGRSLRLSCAASGFTFDDYAMHWVRQTPGKGLEWVSVISWNSDVIAYSDSVKGRFTISRDNAKNSLYLQMNSLGTEDTALYYCAKGHNWNFFDYWGQGTLVTVSS
VL: EIVLTQSPATLSLSPGERATLSCRASQSVSSYLAWYQQKPGQAPRLLIYNVANRATDIPARFSGSGSGTDFTLTISGLEPEDFAVYFCQQRSNWPLTFGGGTKVEIKR
B2: H4H14708P2 (antibody, human IgG4 S228P, kappa, V domains shown)
VH: B1 VH with G10D, T40A, G87R, A97T, N101K, N103S
VL: B1 VL with V29I, Y49F, G77S, F87Y
B3: H4H14709P (antibody, human IgG4 S228P, kappa, V domains shown)
VH: EVQLVESGGGLVQPGGSLRLSCAASGFTFSDYAMSWVRQAPGKGLEWVSGISGNGGDTYYGDFVKGRFTISRDNSKNTLYLQMNSLRGEDTAAYFCVIDLDYWGQGTLVTVSS
VL: DIQMTQSPSTLSASEGDRVTITCRASQSISSWLAWYQQKPGKAPRLLIYKASILGDGVPSRFSGSGSGTEFTLTISSLQPDDFATYYCHQYNSYLWTFGQGTKVEIKR
B4: H4H14728P (antibody, human IgG4 S228P, kappa, V domains shown)
VH: QVQLQESGPGLVKPSQTLSLTCTVSGGSISSADYYWSWIRQHPGKGLEWIGSIYYTGSTYYNPSLKSRLTISIDTSENQFSLKLTSLTAADTAVYYCASEEANWGSHFDSWGQGTLVTVSS
VL: DIQMTQSPSSLSASVGDRVTITCRASQSIDNFLNWYQQKPGKAPKLLIYAASSLQSGVPSRFSGSGSGTDFTLTISSLQPEDFASYYCQHSHSAHPITFGQGTRLEIKR
B5: H4H14731P (antibody, human IgG4 S228P, kappa, V domains shown)
VH: QLQLQESGPGLVKPSETLSLTCTVSGGSISSSNYYWGWIRQPPGKRLEWIGSIYYSGSTYYNPSLKTRVTISVDTSKNQFSLKLTSVTAADTAVYYCAREEAAALTHFDFWGQGTLVTVSS
VL: B4 VL with D30S, F32Y, Y49F, S85T, A94S
B6: H4H14757P (antibody, human IgG4 S228P, kappa, V domains shown)
VH: EVQLVESGGGLVQPGRSLRLSCTASGFTFDDYAMHWVRQAPGKGLEWVSGIRWNGGSIGYVDSVKGRFTISRDNAKKSLHLQMNSLKTEDTALYYCAKDIGDILTGFYGEYGMDVWGQGTTVTVSS
VL: DIQMTQSPSSLSASEGDRVTITCRASQSISSYLNWYQQKAGKAPNLLIYAASSLQSGVPSRFSGSGSGTEYTLTISSLQPEDFATYYCQQSYIIPYTFGQGTKLEIKR
B7: H4H14758P (antibody, human IgG4 S228P, kappa, V domains shown)
VH: EVQLVESGGGLVQPGRSLRLSCAASGFTFDDYAMHWVRQAPGKGLEWVSSVRWNGGIIGYADSVKGRFTISRDNAKNSLYLQMNSLRPEDTALYYCAKDIGDVLTGYYGEYGMDVWGQGTTVTVSS
VL: B6 VL with E15V, T22A, S30T, S31T, A40P, N45K, E70D, Y71F, I94S
B8: rhIL-36β/IL-1F8 [aa5-157] (ligand, human, UniProt Q9NZH7 5-157, looked up)
chain: REAAPKSYAIRDSRQMVWVLSGNSLIAAPLSRSIKPVTLHLIACRDTEFSDKEKGNMVYLGIKGKDLCLFCAEIQGKPTLQLKLQGSQDNIGKDTCWKLVGIHTCINLDVRESCFMGTLDQWGIGVGRKKWKSSFQHHHLRKKDKDFSSMRTN

Where a chain is given by its changes, count along the chain named.

The target of one test is Macaca fascicularis IL-36R extracellular domain expressed with a C-terminal myc-myc-hexahistidine tag (Macaca fascicularis). Nature of the test: SPR Biacore T200, mAb captured by anti-hFc, 25C, PBS-T pH 7.4. Background: In SPR one partner is held on a chip, and binding of the other changes the refractive index at the surface.
For B1, the 100 nM mfIL-36R-MMH Bound (RU) is 91 RU, the koff (commonly the rate constant with which the complex falls apart) was determined as 0.000821 s⁻¹ and the t½ (commonly how long it takes for the measured level to halve) turned out to be 14 min.

Take B2: the 100 nM mfIL-36R-MMH Bound (RU) turned out to be 57 RU, the off-rate (koff) is 0.000752 s⁻¹ and the t½ came to 15 min.

As to B3, the 100 nM mfIL-36R-MMH Bound (RU) was 57 RU, the koff is 0.000519 s⁻¹ and the t½ was 22 min.

B4: the 100 nM mfIL-36R-MMH Bound (RU) turned out to be 74 RU, the off-rate (koff) came out at 0.000544 s⁻¹ and the t½ was determined as 21 min.

The molecule B5 registered a 100 nM mfIL-36R-MMH Bound (RU) of 36 RU, an off-rate constant (koff) of 0.00137 s⁻¹ and a t½ of 8 min.

In turn, B6 came in with a 100 nM mfIL-36R-MMH Bound (RU) of 1 RU.

For B7, the 100 nM mfIL-36R-MMH Bound (RU) is 0 RU.

Another test shares this target. The test is described as follows: SPR Biacore T200, mAb captured by anti-hFc, 37C, PBS-T pH 7.4.
B1 gave a 100 nM mfIL-36R-MMH Bound (RU) of 108 RU, a koff of 0.0018 s⁻¹ and a t½ of 6 min.

B2 came in with a 100 nM mfIL-36R-MMH Bound (RU) of 66 RU, a koff of 0.00169 s⁻¹ and a t½ of 7 min.

The molecule B3 displayed a 100 nM mfIL-36R-MMH Bound (RU) of 92 RU, a koff of 0.000987 s⁻¹ and a t½ of 12 min.

On to B4, for which the 100 nM mfIL-36R-MMH Bound (RU) amounted to 98 RU, the koff was found to be 0.00139 s⁻¹ and the t½ was determined as 8 min.

Consider B5, for which the 100 nM mfIL-36R-MMH Bound (RU) was 43 RU, the koff came out at 0.00361 s⁻¹ and the t½ was determined as 3 min.

As to B6, the 100 nM mfIL-36R-MMH Bound (RU) stood at 0 RU.

Molecule B7 showed a 100 nM mfIL-36R-MMH Bound (RU) of 0 RU.

For the next test the target is unchanged. Nature of the test: SPR (Biacore 4000), mAb captured on anti-human Fc, 25°C.
For the molecule B1, the 100 nM mfIL-36R-MMH Bound (RU) came to 48 RU; the dissociation constant (Kd) (in general, the concentration at which binding is half-saturated) stood at 10.6 nM; the koff was 0.000635 s⁻¹; the on-rate (kon) – broadly, the second-order rate constant of association – is 60200 M⁻¹ s⁻¹. Also, the t½ is 18 min.

B2 yielded a 100 nM mfIL-36R-MMH Bound (RU) of 51 RU, a Kd of 12.9 nM, a dissociation rate constant (koff) of 0.000579 s⁻¹ and an on-rate (kon) of 45000 M⁻¹ s⁻¹. Further, the t½ amounted to 20 min.

B3 had a 100 nM mfIL-36R-MMH Bound (RU) of 34 RU, a dissociation constant Kd of 14.3 nM, a koff of 0.000401 s⁻¹ and a kon of 28000 M⁻¹ s⁻¹. The molecule also displayed a t½ of 29 min.

In the case of B4, the 100 nM mfIL-36R-MMH Bound (RU) worked out at 51 RU, the dissociation constant (Kd) worked out at 7.87 nM, the dissociation rate constant (koff) amounted to 0.000406 s⁻¹ and the kon was determined as 51500 M⁻¹ s⁻¹. The molecule also displayed a t½ of 28 min.

With B5, the 100 nM mfIL-36R-MMH Bound (RU) worked out at 33 RU, the equilibrium dissociation constant (Kd) is 15.9 nM, the off-rate (koff) came to 0.000951 s⁻¹ and the association rate constant (kon) came to 59800 M⁻¹ s⁻¹. The t½ came out at 12 min.

Molecule B6 showed a 100 nM mfIL-36R-MMH Bound (RU) of 1 RU.

In turn, B7 yielded a 100 nM mfIL-36R-MMH Bound (RU) of -1 RU.

The next test deals with Macaca fascicularis IL-36R extracellular domain expressed with a C-terminal myc-myc-hexahistidine tag (mfIL-36R-MMH) (Macaca fascicularis). The test is described as follows: SPR Biacore 4000, mAb captured on anti-hFc, 37C.
Molecule B1 registered a 100 nM mfIL-36R-MMH Bound (RU) of 67 RU, a Kd of 27.8 nM, an off-rate (koff) of 0.00198 s⁻¹ and a kon of 71400 M⁻¹ s⁻¹. Further, the t1/2 is 6 min.

On to B2, for which the 100 nM mfIL-36R-MMH Bound (RU) was determined as 75 RU, the Kd is 30.4 nM, the dissociation rate constant (koff) was found to be 0.00181 s⁻¹ and the association rate constant (kon) was determined as 59600 M⁻¹ s⁻¹. In addition, the t1/2 stood at 6 min.

As to B3, the 100 nM mfIL-36R-MMH Bound (RU) came out at 66 RU, the dissociation constant Kd came to 17.7 nM, the koff came out at 0.000871 s⁻¹ and the on-rate constant (kon) amounted to 49100 M⁻¹ s⁻¹. The molecule also returned a t1/2 of 13 min.

B4 registered a 100 nM mfIL-36R-MMH Bound (RU) of 77 RU, a Kd of 20.7 nM, a dissociation rate constant (koff) of 0.00134 s⁻¹ and an on-rate (kon) of 64800 M⁻¹ s⁻¹. Besides, the t1/2 came out at 9 min.

Molecule B5 came in with a 100 nM mfIL-36R-MMH Bound (RU) of 41 RU, an equilibrium dissociation constant (Kd) of 48.2 nM, a koff of 0.00322 s⁻¹ and a kon of 66800 M⁻¹ s⁻¹. The molecule also showed a t1/2 of 4 min.

Regarding B6, the 100 nM mfIL-36R-MMH Bound (RU) worked out at 4 RU.

Consider B7, for which the 100 nM mfIL-36R-MMH Bound (RU) is -1 RU.

In the next test the target is Macaca fascicularis IL-36R extracellular domain expressed with a C-terminal myc-myc-hexahistidine tag (Macaca fascicularis). Nature of the test: SPR Biacore T200, mAb captured by anti-hFc, 37C, PBS-T pH 6.0.
Turning to B1, the 100 nM mfIL-36R-MMH Bound (RU) is 97 RU, the off-rate constant (koff) worked out at 0.00333 s⁻¹ and the t½ worked out at 3 min.

As for B2, the 100 nM mfIL-36R-MMH Bound (RU) turned out to be 58 RU, the koff came to 0.0031 s⁻¹ and the t½ is 4 min.

With B3, the 100 nM mfIL-36R-MMH Bound (RU) worked out at 80 RU, the off-rate constant (koff) was determined as 0.00294 s⁻¹ and the t½ was found to be 4 min.

Turning to B4, the 100 nM mfIL-36R-MMH Bound (RU) turned out to be 91 RU, the koff came out at 0.00191 s⁻¹ and the t½ was 6 min.

B5 came in with a 100 nM mfIL-36R-MMH Bound (RU) of 40 RU, a dissociation rate constant (koff) of 0.00538 s⁻¹ and a t½ of 2 min.

B6: the 100 nM mfIL-36R-MMH Bound (RU) was -1 RU.

Molecule B7 registered a 100 nM mfIL-36R-MMH Bound (RU) of 1 RU.

Another test has as its target T1, human IL-36R (IL1RL2) on primary human cells (human). Nature of the test: cell-based or functional assay.
For B8, the EC50[M], IL-8 production, Intestinal MyoFibroblasts (InMyoFib), hIL-36β came out at 1.18e-09 M; the EC50[M], IL-8 production, Normal Epidermal Keratinocytes (NHEK), hIL-36β came out at 1.18e-09 M; the EC50[M], IL-8 production, PB-derived CD14+ Monocytes, hIL-36β is 2.63e-09 M.

Another test addresses Macaca fascicularis IL-36R extracellular domain expressed with a C-terminal myc-myc-hexahistidine tag (Macaca fascicularis). Nature of the test: SPR Biacore T200, mAb captured by anti-hFc, 25C, PBS-T pH 6.0.
On to B1, for which the 100 nM mfIL-36R-MMH Bound (RU) was 80 RU, the off-rate constant (koff) came to 0.00171 s⁻¹ and the t½ is 7 min.

Regarding B2, the 100 nM mfIL-36R-MMH Bound (RU) turned out to be 47 RU, the dissociation rate constant (koff) is 0.0015 s⁻¹ and the t½ came out at 8 min.

In turn, B3 displayed a 100 nM mfIL-36R-MMH Bound (RU) of 48 RU, a dissociation rate constant (koff) of 0.00112 s⁻¹ and a t½ of 10 min.

Consider B4, for which the 100 nM mfIL-36R-MMH Bound (RU) is 68 RU, the off-rate (koff) was 0.000616 s⁻¹ and the t½ was determined as 19 min.

In the case of B5, the 100 nM mfIL-36R-MMH Bound (RU) amounted to 23 RU, the koff turned out to be 0.00152 s⁻¹ and the t½ was found to be 8 min.

On to B6, for which the 100 nM mfIL-36R-MMH Bound (RU) turned out to be 1 RU.

In the case of B7, the 100 nM mfIL-36R-MMH Bound (RU) was found to be 1 RU.

These data come from patent US20200017592A1.
